B1: Alpha-crystallin A chain (Homo sapiens), P02489 (parent)
chain: MDVTIQHPWFKRTLGPFYPSRLFDQFFGEGLFEYDLLPFLSSTISPYYRQSLFRTVLDSGISEVRSDRDKFVIFLDVKHFSPEDLTVKVQDDFVEIHGKHNERQDDHGYISREFHRRYRLPSNVDQSALSCSLSADGMLTFCGPKIQTGLDATHAERAIPVSREEKPTSAPSS
partner: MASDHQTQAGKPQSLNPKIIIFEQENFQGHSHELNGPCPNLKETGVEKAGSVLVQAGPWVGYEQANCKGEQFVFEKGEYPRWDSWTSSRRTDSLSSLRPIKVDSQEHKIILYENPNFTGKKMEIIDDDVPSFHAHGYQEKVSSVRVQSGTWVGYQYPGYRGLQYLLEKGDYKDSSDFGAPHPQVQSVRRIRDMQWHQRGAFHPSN
B2: Alpha-crystallin B chain (Homo sapiens), P02511 (parent)
chain: MDIAIHHPWIRRPFFPFHSPSRLFDQFFGEHLLESDLFPTSTSLSPFYLRPPSFLRAPSWFDTGLSEMRLEKDRFSVNLDVKHFSPEELKVKVLGDVIEVHGKHEERQDEHGFISREFHRKYRIPADVDPLTITSSLSSDGVLTVNGPRKQVSGPERTIPITREEKPAVTAAPKK
partner: B1 partner
B3: Alpha-crystallin B chain (Homo sapiens), P02511 (parent)
chain: B2 chain
partner: B1 chain
B4: Gamma-crystallin C (Homo sapiens), P07315 (parent)
chain: MGKITFYEDRAFQGRSYETTTDCPNLQPYFSRCNSIRVESGCWMLYERPNYQGQQYLLRRGEYPDYQQWMGLSDSIRSCCLIPQTVSHRLRLYEREDHKGLMMELSEDCPSIQDRFHLSEIRSLHVLEGCWVLYELPNYRGRQYLLRPQEYRRCQDWGAMDAKAGSLRRVVDLY
partner: B2 chain
B5: Alpha-crystallin A chain (Homo sapiens), P02489 (parent)
chain: B1 chain
partner: B2 chain
B6: Gamma-crystallin C (Homo sapiens), P07315 (parent)
chain: B4 chain
partner: B1 partner
B7: Alpha-crystallin A chain (Homo sapiens), P02489 (parent)
chain: B1 chain

Variants of: B1
Settings: with crbb2_human CRYBB2, P43320

effect of a mutation on the interaction	Variant
disrupting interaction	MDVTIQHPWFKRTLGPFYPSRLFDQFFGEGLFEYDLLPFLSSTISPYYRQSLFRTVLDSGISEVRSDRDKFVIFLDVKHFSPEDLTVKVQDDFVEIHGKHNERQDDHGYISREFHCRYRLPSNVDQSALSCSLSADGMLTFCGPKIQTGLDATHAERAIPVSREEKPTSAPSS [R116C]

Variants of: B2
Settings: with crbb2_human CRYBB2, P43320

effect of a mutation on the interaction	Variant
increasing interaction	MDIAIHHPWIRRPFFPFHSPSRLFDQFFGEHLLESDLFPTSTSLSPFYLRPPSFLRAPSWFDTGLSEMRLEKDRFSVNLDVKHFSPEELKVKVLGDVIEVHGKHEERQDEHGFISREFHGKYRIPADVDPLTITSSLSSDGVLTVNGPRKQVSGPERTIPITREEKPAVTAAPKK [R120G]

Variants of: B3
Settings: with cryaa_human CRYAA

effect of a mutation on the interaction	Variant
decreasing interaction	MDIAIHHPWIRRPFFPFHSPSRLFDQFFGEHLLESDLFPTSTSLSPFYLRPPSFLRAPSWFDTGLSEMRLEKDRFSVNLDVKHFSPEELKVKVLGDVIEVHGKHEERQDEHGFISREFHGKYRIPADVDPLTITSSLSSDGVLTVNGPRKQVSGPERTIPITREEKPAVTAAPKK [R120G]

Variants of: B4
Settings: with cryab_human CRYAB

effect of a mutation on the interaction	Variant
disrupting interaction	T5P

Variants of: B5
Settings: with cryab_human CRYAB

effect of a mutation on the interaction	Variant
increasing interaction	MDVTIQHPWFKRTLGPFYPSRLFDQFFGEGLFEYDLLPFLSSTISPYYRQSLFRTVLDSGISEVRSDRDKFVIFLDVKHFSPEDLTVKVQDDFVEIHGKHNERQDDHGYISREFHCRYRLPSNVDQSALSCSLSADGMLTFCGPKIQTGLDATHAERAIPVSREEKPTSAPSS [R116C]

Variants of: B6
Settings: with crbb2_human CRYBB2, P43320

effect of a mutation on the interaction	Variant
disrupting interaction	T5P

Variants of: B7
Settings: with crgc_human CRYGC

effect of a mutation on the interaction	Variant
disrupting interaction	MDVTIQHPWFKRTLGPFYPSRLFDQFFGEGLFEYDLLPFLSSTISPYYRQSLFRTVLDSGISEVRSDRDKFVIFLDVKHFSPEDLTVKVQDDFVEIHGKHNERQDDHGYISREFHCRYRLPSNVDQSALSCSLSADGMLTFCGPKIQTGLDATHAERAIPVSREEKPTSAPSS [R116C]
